In publication PMC7616792, “The structural mechanism of dimeric DONSON in replicative helicase activation” (Molecular cell, 2023):

Legend:
[1] = molecular target: DONSON WM (W234L; M463T) (Xenopus laevis) (UniProt Q5U4U4); assay: mass photometry; protein concentration varied (Figure S7); DONSON WM at 20 nM; monomer to dimer
[2] = molecular target: the molecule itself; assay: mass photometry; recombinant DONSON proteins diluted ten-fold into Dulbecco PBS to a final concentration of 3 to 5 nM; TwoMP (Refeyn); monomer to dimer
[3] = molecular target: T1, recombinant FLAG5, His6-tagged GINS (Psf1, Psf2, Psf3 and Sld5) (Xenopus laevis, UniProt Q7ZT47 1-196; Q7ZT46 1-185; Q7ZT01 1-210; Q7ZT48 1-221); assay: co-IP; recombinant FLAG-tagged GINS immunoprecipitated after incubation with recombinant DONSON variants; blot with an anti-DONSON antibody (Figure S5B); settings: both partners purified
T1 construct: Psf1, subunit of GINS, Xenopus laevis; Psf2, subunit of GINS, Xenopus laevis; Psf3, subunit of GINS, Xenopus laevis; Sld5, subunit of GINS, Xenopus laevis; also called recombinant GINS; FLAG-tagged GINS; copies: + + +
T1 sequence (looked up) 1: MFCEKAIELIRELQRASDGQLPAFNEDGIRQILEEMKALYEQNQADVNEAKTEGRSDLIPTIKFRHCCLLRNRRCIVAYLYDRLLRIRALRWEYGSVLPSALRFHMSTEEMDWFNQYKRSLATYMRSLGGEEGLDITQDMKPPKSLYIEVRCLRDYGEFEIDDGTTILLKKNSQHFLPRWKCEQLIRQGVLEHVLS
T1 sequence (looked up) 2: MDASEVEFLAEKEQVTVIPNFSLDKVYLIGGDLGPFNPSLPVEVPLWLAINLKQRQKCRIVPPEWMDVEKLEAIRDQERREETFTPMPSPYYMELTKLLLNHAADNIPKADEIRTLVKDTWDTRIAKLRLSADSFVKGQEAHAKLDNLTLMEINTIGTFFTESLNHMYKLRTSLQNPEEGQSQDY
T1 sequence (looked up) 3: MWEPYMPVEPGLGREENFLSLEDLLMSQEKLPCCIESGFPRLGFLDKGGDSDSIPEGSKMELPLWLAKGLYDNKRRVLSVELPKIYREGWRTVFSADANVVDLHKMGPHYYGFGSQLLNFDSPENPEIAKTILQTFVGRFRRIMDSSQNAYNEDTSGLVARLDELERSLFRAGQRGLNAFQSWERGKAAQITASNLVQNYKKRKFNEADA
T1 sequence (looked up) 4: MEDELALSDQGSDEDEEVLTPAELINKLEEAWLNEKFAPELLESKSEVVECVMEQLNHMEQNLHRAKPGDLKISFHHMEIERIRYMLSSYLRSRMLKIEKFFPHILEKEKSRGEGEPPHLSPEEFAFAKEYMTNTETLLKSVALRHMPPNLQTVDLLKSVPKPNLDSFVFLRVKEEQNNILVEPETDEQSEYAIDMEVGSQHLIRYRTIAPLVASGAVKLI

Molecule | stoichiometry N [1] | stoichiometry N [2] | binding result [3]
DONSON WM (W234L; M463T) (from UniProt Q5U4U4 1-579) (natural protein) | 2 | – | –
recombinant Xenopus laevis DONSON WT (natural protein, DONSON (Downstream neighbor of Son), Xenopus laevis; also called WT DONSON; WT recombinant DONSON; source: E. coli BL21 (DE3), purified (Ni-NTA)) MAELLPGYSPSFKKPSEILRLSRRRSRSEASKTGLSPFSPGDVIKRVPGLRPFSPGPNKGAGVKRRNPFASLENTVCSPVKRRAETVAEYGAASLEPRALSAVRPSCLGQDSPEPPQFNSVEDVIWGDPLAADADPLVKTESPEKPAPACEIPKGSVTFPADWSLKTRLLFTSSHSFSWADHLKAQEEAQGLVMQCRATAVNLPHSIQEPKLSTDLRCAFQQSLVHWIHPSLPWVQLFPRIGVDRKMAGKNTPWSQDESLQQVLMSEWALSFTSLYNLLKAKLCPYFYVCTYQFTVLFRAAGLAGSDVITAVMSPTTRGLREAMKNEGITFSQPLVEDDTGKKQKKPEAASQGDINPEKENGTAEADEASDESDEDESFSWLEEMGVEDKIKKPDSISIKLRKEKNEVKLDHKPESVVLVKGTNTFTLLNFLINCKSIVAAAGLQAGLPPTLLSPVAFRGATMHALKARSVNVKTRVNSGYKDQFSLEITGPIMPHSLHSLTMLLQSAQRGSFSAGLYTHEPTAVFNTPIHSQAVKEISADLQNCGLHPCTVEQLTQVNELGKLSLRHLEMTDYRYTWK | – | 2 | binds
DONSON DEW (D374A; E377A; W381A) (natural protein, Xenopus laevis, DONSON, Xenopus laevis; also called pET28a-DONSON-DEW; source: E. coli BL21 (DE3), purified (Ni-NTA)) MAELLPGYSPSFKKPSEILRLSRRRSRSEASKTGLSPFSPGDVIKRVPGLRPFSPGPNKGAGVKRRNPFASLENTVCSPVKRRAETVAEYGAASLEPRALSAVRPSCLGQDSPEPPQFNSVEDVIWGDPLAADADPLVKTESPEKPAPACEIPKGSVTFPADWSLKTRLLFTSSHSFSWADHLKAQEEAQGLVMQCRATAVNLPHSIQEPKLSTDLRCAFQQSLVHWIHPSLPWVQLFPRIGVDRKMAGKNTPWSQDESLQQVLMSEWALSFTSLYNLLKAKLCPYFYVCTYQFTVLFRAAGLAGSDVITAVMSPTTRGLREAMKNEGITFSQPLVEDDTGKKQKKPEAASQGDINPEKENGTAEADEASDESAEDASFSALEEMGVEDKIKKPDSISIKLRKEKNEVKLDHKPESVVLVKGTNTFTLLNFLINCKSIVAAAGLQAGLPPTLLSPVAFRGATMHALKARSVNVKTRVNSGYKDQFSLEITGPIMPHSLHSLTMLLQSAQRGSFSAGLYTHEPTAVFNTPIHSQAVKEISADLQNCGLHPCTVEQLTQVNELGKLSLRHLEMTDYRYTWK | – | 2 | –
DONSON S437A (natural protein, Xenopus laevis, DONSON, Xenopus laevis; also called DONSON Ser437Ala; pET28a-DONSON-S437A; source: E. coli BL21 (DE3), purified (Ni-NTA)) MAELLPGYSPSFKKPSEILRLSRRRSRSEASKTGLSPFSPGDVIKRVPGLRPFSPGPNKGAGVKRRNPFASLENTVCSPVKRRAETVAEYGAASLEPRALSAVRPSCLGQDSPEPPQFNSVEDVIWGDPLAADADPLVKTESPEKPAPACEIPKGSVTFPADWSLKTRLLFTSSHSFSWADHLKAQEEAQGLVMQCRATAVNLPHSIQEPKLSTDLRCAFQQSLVHWIHPSLPWVQLFPRIGVDRKMAGKNTPWSQDESLQQVLMSEWALSFTSLYNLLKAKLCPYFYVCTYQFTVLFRAAGLAGSDVITAVMSPTTRGLREAMKNEGITFSQPLVEDDTGKKQKKPEAASQGDINPEKENGTAEADEASDESDEDESFSWLEEMGVEDKIKKPDSISIKLRKEKNEVKLDHKPESVVLVKGTNTFTLLNFLINCKAIVAAAGLQAGLPPTLLSPVAFRGATMHALKARSVNVKTRVNSGYKDQFSLEITGPIMPHSLHSLTMLLQSAQRGSFSAGLYTHEPTAVFNTPIHSQAVKEISADLQNCGLHPCTVEQLTQVNELGKLSLRHLEMTDYRYTWK | – | 2 | –
DONSON DEWS (D374A; E377A; W381A; S437A) (natural protein, Xenopus laevis, DONSON, Xenopus laevis; also called pET28a-DONSON-DEWS; source: E. coli BL21 (DE3), purified (Ni-NTA)) MAELLPGYSPSFKKPSEILRLSRRRSRSEASKTGLSPFSPGDVIKRVPGLRPFSPGPNKGAGVKRRNPFASLENTVCSPVKRRAETVAEYGAASLEPRALSAVRPSCLGQDSPEPPQFNSVEDVIWGDPLAADADPLVKTESPEKPAPACEIPKGSVTFPADWSLKTRLLFTSSHSFSWADHLKAQEEAQGLVMQCRATAVNLPHSIQEPKLSTDLRCAFQQSLVHWIHPSLPWVQLFPRIGVDRKMAGKNTPWSQDESLQQVLMSEWALSFTSLYNLLKAKLCPYFYVCTYQFTVLFRAAGLAGSDVITAVMSPTTRGLREAMKNEGITFSQPLVEDDTGKKQKKPEAASQGDINPEKENGTAEADEASDESAEDASFSALEEMGVEDKIKKPDSISIKLRKEKNEVKLDHKPESVVLVKGTNTFTLLNFLINCKAIVAAAGLQAGLPPTLLSPVAFRGATMHALKARSVNVKTRVNSGYKDQFSLEITGPIMPHSLHSLTMLLQSAQRGSFSAGLYTHEPTAVFNTPIHSQAVKEISADLQNCGLHPCTVEQLTQVNELGKLSLRHLEMTDYRYTWK | – | 2 | –
DONSON 3A (V473A; R476A; Y481A) (natural protein, Xenopus laevis, DONSON, Xenopus laevis; also called pET28a-DONSON-3A; source: E. coli BL21 (DE3), purified (Ni-NTA)) MAELLPGYSPSFKKPSEILRLSRRRSRSEASKTGLSPFSPGDVIKRVPGLRPFSPGPNKGAGVKRRNPFASLENTVCSPVKRRAETVAEYGAASLEPRALSAVRPSCLGQDSPEPPQFNSVEDVIWGDPLAADADPLVKTESPEKPAPACEIPKGSVTFPADWSLKTRLLFTSSHSFSWADHLKAQEEAQGLVMQCRATAVNLPHSIQEPKLSTDLRCAFQQSLVHWIHPSLPWVQLFPRIGVDRKMAGKNTPWSQDESLQQVLMSEWALSFTSLYNLLKAKLCPYFYVCTYQFTVLFRAAGLAGSDVITAVMSPTTRGLREAMKNEGITFSQPLVEDDTGKKQKKPEAASQGDINPEKENGTAEADEASDESDEDESFSWLEEMGVEDKIKKPDSISIKLRKEKNEVKLDHKPESVVLVKGTNTFTLLNFLINCKSIVAAAGLQAGLPPTLLSPVAFRGATMHALKARSVNAKTAVNSGAKDQFSLEITGPIMPHSLHSLTMLLQSAQRGSFSAGLYTHEPTAVFNTPIHSQAVKEISADLQNCGLHPCTVEQLTQVNELGKLSLRHLEMTDYRYTWK | – | 2 | binds
DONSON ΔD1 (Δ1-155) (domain or fragment, Xenopus laevis, UniProt Q5U4U4 156-579, looked up, DONSON, Xenopus laevis, without residues 1-155 (the unstructured D1 loop); also called DONSON DD1 (D1-155); pET28a-DONSON ΔD1; source: recombinant (pET28a vector)) SVTFPADWSLKTRLLFTSSHSFSWADHLKAQEEAQGLVMQCRATAVNLPHSIQEPKLSTDLRCAFQQSLVHWIHPSLPWVQLFPRIGVDRKMAGKNTPWSQDESLQQVLMSEWALSFTSLYNLLKAKLCPYFYVCTYQFTVLFRAAGLAGSDVITAVMSPTTRGLREAMKNEGITFSQPLVEDDTGKKQKKPEAASQGDINPEKENGTAEADEASDESDEDESFSWLEEMGVEDKIKKPDSISIKLRKEKNEVKLDHKPESVVLVKGTNTFTLLNFLINCKSIVAAAGLQAGLPPTLLSPVAFRGATMHALKARSVNVKTRVNSGYKDQFSLEITGPIMPHSLHSLTMLLQSAQRGSFSAGLYTHEPTAVFNTPIHSQAVKEISADLQNCGLHPCTVEQLTQVNELGKLSLRHLEMTDYRYTWK | – | 2 | –
DONSONΔ24 (truncation of residues 1–24) (domain or fragment, Xenopus laevis, UniProt Q5U4U4 25-579, looked up, DONSON, Xenopus laevis, without residues 1-24; See the note of m17 on a possible Myc tag; also called DONSON D24 (D1-24); pET28a-DONSON Δ24 (1-24 removed); source: E. coli BL21 (DE3), purified (Ni-NTA)) RSRSEASKTGLSPFSPGDVIKRVPGLRPFSPGPNKGAGVKRRNPFASLENTVCSPVKRRAETVAEYGAASLEPRALSAVRPSCLGQDSPEPPQFNSVEDVIWGDPLAADADPLVKTESPEKPAPACEIPKGSVTFPADWSLKTRLLFTSSHSFSWADHLKAQEEAQGLVMQCRATAVNLPHSIQEPKLSTDLRCAFQQSLVHWIHPSLPWVQLFPRIGVDRKMAGKNTPWSQDESLQQVLMSEWALSFTSLYNLLKAKLCPYFYVCTYQFTVLFRAAGLAGSDVITAVMSPTTRGLREAMKNEGITFSQPLVEDDTGKKQKKPEAASQGDINPEKENGTAEADEASDESDEDESFSWLEEMGVEDKIKKPDSISIKLRKEKNEVKLDHKPESVVLVKGTNTFTLLNFLINCKSIVAAAGLQAGLPPTLLSPVAFRGATMHALKARSVNVKTRVNSGYKDQFSLEITGPIMPHSLHSLTMLLQSAQRGSFSAGLYTHEPTAVFNTPIHSQAVKEISADLQNCGLHPCTVEQLTQVNELGKLSLRHLEMTDYRYTWK | – | 2 | –
